Results: PMC9482650, “Quantitative fragmentomics allow affinity mapping of interactomes” (Nature Communications, 2022)

What follows are binders tested against Inadl_1, Q8NI35 (assay: holdup assay). Conditions: plain residues with an end cap or a label only (N-terminal biotin on a linker: ado-ado).
Parameters: key: below the threshold = too weak to quantify, mostly under pKd 3.1 to 4

Inadl_1, Q8NI35, sequence (Q8NI35 113-229): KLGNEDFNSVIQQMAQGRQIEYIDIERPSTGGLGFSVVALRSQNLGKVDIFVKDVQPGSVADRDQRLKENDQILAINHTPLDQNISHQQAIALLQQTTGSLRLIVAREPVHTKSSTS

Binder	pKd
SGDGKTSVWI [GJC1, P36383]	4.03

These binders were tested against GORASP2, Q9H8Y8 (assay: holdup assay). Conditions: plain residues with an end cap or a label only (N-terminal biotin on a linker: ado-ado).
Parameters: key: below the threshold = too weak to quantify, mostly under pKd 3.1 to 4

Binder	pKd
SGDGKTSVWI [GJC1, P36383]	5.03

Each binder was assayed against DLG2_3, Q15700 (assay: holdup assay). Conditions: plain residues with an end cap or a label only (N-terminal biotin on a linker: ado-ado).
Parameters: key: below the threshold = too weak to quantify, mostly under pKd 3.1 to 4

Binder	pKd
SGDGKTSVWI [GJC1, P36383]	3.83

The binders below were run against T1, MPP7, Q5T2T1 (assay: holdup assay). Conditions: plain residues with an end cap or a label only (N-terminal biotin on a linker: ado-ado).
T1 sequence (Q5T2T1 134-230, limits assumed, looked up): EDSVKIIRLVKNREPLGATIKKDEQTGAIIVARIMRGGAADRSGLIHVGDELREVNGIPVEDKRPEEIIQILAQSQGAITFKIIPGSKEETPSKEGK
Parameters: key: below the threshold = too weak to quantify, mostly under pKd 3.1 to 4

Binder	pKd
SGDGKTSVWI [GJC1, P36383]	below the threshold

Each binder was assayed against T2, RHPN1, Q8TCX5 (assay: holdup assay). Conditions: plain residues with an end cap or a label only (N-terminal biotin on a linker: ado-ado).
T2 sequence (Q8TCX5 508-602, limits assumed, looked up): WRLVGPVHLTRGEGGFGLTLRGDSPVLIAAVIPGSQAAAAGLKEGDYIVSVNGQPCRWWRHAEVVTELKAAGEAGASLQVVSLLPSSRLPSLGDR
Parameters: key: below the threshold = too weak to quantify, mostly under pKd 3.1 to 4

Binder	pKd
SGDGKTSVWI [GJC1, P36383]	below the threshold

What follows are binders tested against T3, MPDZ_10, O75970 (assay: holdup assay). Conditions: plain residues with an end cap or a label only (N-terminal biotin on a linker: ado-ado).
T3 sequence (O75970 1624-1722, limits assumed, looked up): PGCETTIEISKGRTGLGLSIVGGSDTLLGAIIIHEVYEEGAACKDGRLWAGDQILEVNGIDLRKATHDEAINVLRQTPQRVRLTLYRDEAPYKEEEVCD
Parameters: key: below the threshold = too weak to quantify, mostly under pKd 3.1 to 4

Binder	pKd
SGDGKTSVWI [GJC1, P36383]	below the threshold

These binders were tested against NHERF4_1, Q86UT5-2 (assay: holdup assay). Conditions: plain residues with an end cap or a label only (N-terminal biotin on a linker: ado-ado).
Parameters: key: below the threshold = too weak to quantify, mostly under pKd 3.1 to 4

NHERF4_1, Q86UT5-2, sequence (Q86UT5 other isoform, or with tags, fused parts or gaps): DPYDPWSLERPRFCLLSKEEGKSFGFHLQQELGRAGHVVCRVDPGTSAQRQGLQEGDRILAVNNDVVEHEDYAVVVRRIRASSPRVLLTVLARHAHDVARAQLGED

Binder	pKd
SGDGKTSVWI [GJC1, P36383]	3.57

Each binder was assayed against SCRIB_3, Q14160 (assay: holdup assay). Conditions: plain residues with an end cap or a label only (N-terminal biotin on a linker: ado-ado).
Parameters: key: below the threshold = too weak to quantify, mostly under pKd 3.1 to 4

SCRIB_3, Q14160, sequence (Q14160 999-1103): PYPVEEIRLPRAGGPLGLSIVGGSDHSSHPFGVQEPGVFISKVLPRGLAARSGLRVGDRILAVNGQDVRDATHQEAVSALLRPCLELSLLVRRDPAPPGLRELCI

Binder	pKd
SGDGKTSVWI [GJC1, P36383]	4.21

These binders were tested against NHERF4_4, Q86UT5 (assay: holdup assay). Conditions: plain residues with an end cap or a label only (N-terminal biotin on a linker: ado-ado).
Parameters: key: below the threshold = too weak to quantify, mostly under pKd 3.1 to 4

NHERF4_4, Q86UT5, sequence (Q86UT5 464-550): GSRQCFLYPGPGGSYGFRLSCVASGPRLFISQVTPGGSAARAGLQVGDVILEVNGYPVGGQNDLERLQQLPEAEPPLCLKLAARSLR

Binder	pKd
SGDGKTSVWI [GJC1, P36383]	4.24

What follows are binders tested against T4, DFNB31_2, Q9P202 (assay: holdup assay). Conditions: plain residues with an end cap or a label only (N-terminal biotin on a linker: ado-ado).
T4 sequence (Q9P202 274-371, limits assumed, looked up): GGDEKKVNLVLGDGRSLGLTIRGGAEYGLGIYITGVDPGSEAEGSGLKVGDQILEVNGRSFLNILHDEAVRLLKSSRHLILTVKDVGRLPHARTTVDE
Parameters: key: below the threshold = too weak to quantify, mostly under pKd 3.1 to 4

Binder	pKd
SGDGKTSVWI [GJC1, P36383]	below the threshold

What follows are binders tested against GRIP2_6, Q9C0E4 (assay: holdup assay). Conditions: plain residues with an end cap or a label only (N-terminal biotin on a linker: ado-ado).
Parameters: key: below the threshold = too weak to quantify, mostly under pKd 3.1 to 4

GRIP2_6, Q9C0E4, sequence (Q9C0E4 648-740): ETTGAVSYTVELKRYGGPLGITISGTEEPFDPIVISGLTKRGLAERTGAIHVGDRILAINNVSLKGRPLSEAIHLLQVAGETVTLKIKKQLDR

Binder	pKd
SGDGKTSVWI [GJC1, P36383]	3.55

These binders were tested against PDLIM1, O00151 (assay: holdup assay). Conditions: plain residues with an end cap or a label only (N-terminal biotin on a linker: ado-ado).
Parameters: key: below the threshold = too weak to quantify, mostly under pKd 3.1 to 4

PDLIM1, O00151, sequence (O00151 1-87): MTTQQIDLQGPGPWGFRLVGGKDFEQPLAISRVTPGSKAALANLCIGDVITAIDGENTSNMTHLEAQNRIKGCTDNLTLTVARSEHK

Binder	pKd
SGDGKTSVWI [GJC1, P36383]	below the threshold

What follows are binders tested against T5, SNTB1, Q13884 (assay: holdup assay). Conditions: plain residues with an end cap or a label only (N-terminal biotin on a linker: ado-ado).
T5 sequence (Q13884 107-205, limits assumed, looked up): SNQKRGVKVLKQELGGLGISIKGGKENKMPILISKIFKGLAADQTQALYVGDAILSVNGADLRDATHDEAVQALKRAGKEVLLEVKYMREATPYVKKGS
Parameters: key: below the threshold = too weak to quantify, mostly under pKd 3.1 to 4

Binder	pKd
SGDGKTSVWI [GJC1, P36383]	below the threshold

These binders were tested against SCRIB_1, Q14160 (assay: holdup assay). Conditions: plain residues with an end cap or a label only (N-terminal biotin on a linker: ado-ado).
Parameters: key: below the threshold = too weak to quantify, mostly under pKd 3.1 to 4

SCRIB_1, Q14160, sequence (Q14160 718-814): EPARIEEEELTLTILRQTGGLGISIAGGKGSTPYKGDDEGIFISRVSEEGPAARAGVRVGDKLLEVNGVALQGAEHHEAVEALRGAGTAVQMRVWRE

Binder	pKd
SGDGKTSVWI [GJC1, P36383]	3.94

What follows are binders tested against FRMPD2_2, Q68DX3 (assay: holdup assay). Conditions: plain residues with an end cap or a label only (N-terminal biotin on a linker: ado-ado).
Parameters: key: below the threshold = too weak to quantify, mostly under pKd 3.1 to 4

FRMPD2_2, Q68DX3, sequence (Q68DX3 944-1038): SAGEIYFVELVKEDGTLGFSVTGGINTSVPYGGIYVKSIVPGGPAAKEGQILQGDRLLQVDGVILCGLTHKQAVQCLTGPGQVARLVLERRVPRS

Binder	pKd
SGDGKTSVWI [GJC1, P36383]	below the threshold

The binders below were run against Inadl_4, Q8NI35 (assay: holdup assay). Conditions: plain residues with an end cap or a label only (N-terminal biotin on a linker: ado-ado).
Parameters: key: below the threshold = too weak to quantify, mostly under pKd 3.1 to 4

Inadl_4, Q8NI35, sequence (Q8NI35 547-651): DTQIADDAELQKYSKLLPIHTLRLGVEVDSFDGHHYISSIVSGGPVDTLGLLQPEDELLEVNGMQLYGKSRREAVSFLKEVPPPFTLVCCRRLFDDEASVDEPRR

Binder	pKd
SGDGKTSVWI [GJC1, P36383]	below the threshold

The binders below were run against TJP1_2, Q07157 (assay: holdup assay). Conditions: plain residues with an end cap or a label only (N-terminal biotin on a linker: ado-ado).
Parameters: key: below the threshold = too weak to quantify, mostly under pKd 3.1 to 4

TJP1_2, Q07157, sequence (Q07157 181-274): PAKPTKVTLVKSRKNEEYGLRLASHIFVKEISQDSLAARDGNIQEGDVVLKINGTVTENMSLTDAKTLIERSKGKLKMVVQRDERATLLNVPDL

Binder	pKd
SGDGKTSVWI [GJC1, P36383]	5

These binders were tested against Inadl_3, Q8NI35 (assay: holdup assay). Conditions: plain residues with an end cap or a label only (N-terminal biotin on a linker: ado-ado).
Parameters: key: below the threshold = too weak to quantify, mostly under pKd 3.1 to 4

Inadl_3, Q8NI35, sequence (Q8NI35 359-469): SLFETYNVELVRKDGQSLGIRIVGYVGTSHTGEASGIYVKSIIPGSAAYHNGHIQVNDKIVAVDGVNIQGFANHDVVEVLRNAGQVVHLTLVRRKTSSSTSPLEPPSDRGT

Binder	pKd
SGDGKTSVWI [GJC1, P36383]	3.69

Each binder was assayed against T6, PDZRN3_1, Q9UPQ7 (assay: holdup assay). Conditions: plain residues with an end cap or a label only (N-terminal biotin on a linker: ado-ado).
T6 sequence (Q9UPQ7 244-349, limits assumed, looked up): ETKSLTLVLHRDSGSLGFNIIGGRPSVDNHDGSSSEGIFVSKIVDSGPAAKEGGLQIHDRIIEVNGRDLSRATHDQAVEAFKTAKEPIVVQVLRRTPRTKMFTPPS
Parameters: key: below the threshold = too weak to quantify, mostly under pKd 3.1 to 4

Binder	pKd
SGDGKTSVWI [GJC1, P36383]	below the threshold

These binders were tested against T7, HTRA3, P83110 (assay: holdup assay). Conditions: plain residues with an end cap or a label only (N-terminal biotin on a linker: ado-ado).
T7 sequence (P83110 354-453, limits assumed, looked up): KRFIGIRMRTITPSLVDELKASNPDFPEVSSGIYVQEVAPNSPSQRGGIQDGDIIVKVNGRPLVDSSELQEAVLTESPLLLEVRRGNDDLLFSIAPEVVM
Parameters: key: below the threshold = too weak to quantify, mostly under pKd 3.1 to 4

Binder	pKd
SGDGKTSVWI [GJC1, P36383]	5.8

Each binder was assayed against T8, FRMPD1, Q5SYB0 (assay: holdup assay). Conditions: plain residues with an end cap or a label only (N-terminal biotin on a linker: ado-ado).
T8 sequence (Q5SYB0 52-145, limits assumed, looked up): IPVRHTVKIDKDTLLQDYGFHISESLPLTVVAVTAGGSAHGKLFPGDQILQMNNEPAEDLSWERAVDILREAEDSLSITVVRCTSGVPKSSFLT
Parameters: key: below the threshold = too weak to quantify, mostly under pKd 3.1 to 4

Binder	pKd
SGDGKTSVWI [GJC1, P36383]	below the threshold

What follows are binders tested against IL16_1, Q14005 (assay: holdup assay). Conditions: plain residues with an end cap or a label only (N-terminal biotin on a linker: ado-ado).
Parameters: key: below the threshold = too weak to quantify, mostly under pKd 3.1 to 4

IL16_1, Q14005, sequence (Q14005 210-306): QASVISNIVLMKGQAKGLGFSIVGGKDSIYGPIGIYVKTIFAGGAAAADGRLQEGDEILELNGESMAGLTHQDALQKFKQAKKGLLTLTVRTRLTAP

Binder	pKd
SGDGKTSVWI [GJC1, P36383]	below the threshold

The binders below were run against GORASP1, Q9BQQ3 (assay: holdup assay). Conditions: plain residues with an end cap or a label only (N-terminal biotin on a linker: ado-ado).
Parameters: key: below the threshold = too weak to quantify, mostly under pKd 3.1 to 4

GORASP1, Q9BQQ3, sequence (Q9BQQ3 1-208): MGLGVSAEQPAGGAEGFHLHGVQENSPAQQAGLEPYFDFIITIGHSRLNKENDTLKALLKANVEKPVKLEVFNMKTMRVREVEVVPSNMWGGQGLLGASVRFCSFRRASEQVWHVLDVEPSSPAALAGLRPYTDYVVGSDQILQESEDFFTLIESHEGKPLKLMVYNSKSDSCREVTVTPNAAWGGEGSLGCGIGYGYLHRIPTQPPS

Binder	pKd
SGDGKTSVWI [GJC1, P36383]	4.51

Each binder was assayed against T9, ARHGAP21, Q5T5U3 (assay: holdup assay). Conditions: plain residues with an end cap or a label only (N-terminal biotin on a linker: ado-ado).
T9 sequence (Q5T5U3 45-169, limits assumed, looked up): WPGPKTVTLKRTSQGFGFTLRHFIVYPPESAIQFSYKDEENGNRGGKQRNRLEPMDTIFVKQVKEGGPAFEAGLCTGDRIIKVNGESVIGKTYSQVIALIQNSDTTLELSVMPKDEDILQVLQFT
Parameters: key: below the threshold = too weak to quantify, mostly under pKd 3.1 to 4

Binder	pKd
SGDGKTSVWI [GJC1, P36383]	3.58

The binders below were run against T10, MPDZ_5, O75970 (assay: holdup assay). Conditions: plain residues with an end cap or a label only (N-terminal biotin on a linker: ado-ado).
T10 sequence (O75970 695-796, limits assumed, looked up): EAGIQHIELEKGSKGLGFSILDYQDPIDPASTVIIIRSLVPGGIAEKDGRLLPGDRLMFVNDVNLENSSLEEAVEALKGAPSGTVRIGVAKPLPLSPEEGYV
Parameters: key: below the threshold = too weak to quantify, mostly under pKd 3.1 to 4

Binder	pKd
SGDGKTSVWI [GJC1, P36383]	below the threshold

What follows are binders tested against DLG4_1, P78352 (assay: holdup assay). Conditions: plain residues with an end cap or a label only (N-terminal biotin on a linker: ado-ado).
Parameters: key: below the threshold = too weak to quantify, mostly under pKd 3.1 to 4

DLG4_1, P78352, sequence (P78352 62-152): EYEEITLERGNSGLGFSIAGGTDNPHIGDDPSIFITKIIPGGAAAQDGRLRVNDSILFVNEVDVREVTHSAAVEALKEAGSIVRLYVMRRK

Binder	pKd
SGDGKTSVWI [GJC1, P36383]	below the threshold

The binders below were run against T11, LRRC7, Q96NW7 (assay: holdup assay). Conditions: plain residues with an end cap or a label only (N-terminal biotin on a linker: ado-ado).
T11 sequence (Q96NW7 1440-1537, limits assumed, looked up): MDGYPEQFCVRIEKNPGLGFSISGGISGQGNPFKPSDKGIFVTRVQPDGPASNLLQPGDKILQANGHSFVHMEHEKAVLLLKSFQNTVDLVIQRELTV
Parameters: key: below the threshold = too weak to quantify, mostly under pKd 3.1 to 4

Binder	pKd
SGDGKTSVWI [GJC1, P36383]	3.49
